According to publication PMC9853177 (2023):

Target: linear tetra-ubiquitin (M1-linked Ub4) (Homo sapiens, UniProt P0CG47)
Assay: ITC

B1: HOIL-1 (protein)
chain: MDEKTKKAEEMALSLTRAVAGGDEQVAMKCAIWLAEQRVPLSVQLKPEVSPTQDIRLWVSVEDAQMHTVTIWLTVRPDMTVASLKDMVFLDYGFPPVLQQWVIGQRLARDQETLHSHGVRQNGDSAYLYLLSARNTSLNPQELQRERQLRMLEDLGFKDLTLQPRGPLEPGPPKPGVPQEPGRGQPDAVPEPPPVGWQCPGCTFINKPTRPGCEMCCRARPEAYQVPASYQPDEEERARLAGEEEALRQYQQRKQQQQEGNYLQHVQLDQRSLVLNTEPAECPVCYSVLAPGEAVVLRECLHTFCRECLQGTIRNSQEAEVSCPFIDNTYSCSGKLLEREIKALLTPEDYQRFLDLGISIAENRSAFSYHCKTPDCKGWCFFEDDVNEFTCPVCFHVNCLLCKAIHEQMNCKEYQEDLALRAQNDVAARQTTEMLKVMLQQGEAMRCPQCQIVVQKKDGCDWIRCTVCHTEICWVTKGPRWGPGGPGDTSGGCRCRVNGIPCHPSCQNCH
With B1 the Kd was 90 nM.
